Laboratory results from PMC12395675.

B1: spike (S) protein: N1232Q (protein)
parent chain: MKSLTYFWLFLPVLSTLSLPQDVTRCSANTNFRRFFSKFNVQAPAVVVLGGYLPIGENQGVNSTWYCAGQHPTASGVHGIFVSHIRGGHGFEIGISQEPFDPSGYQLYLHKATNGNTNATARLRICQFPSIKTLGPTANNDVTTGRNCLFNKAIPAHMSEHSVVGITWDNDRVTVFSDKIYYFYFKNDWSRVATKCYNSGGCAMQYVYEPTYYMLNVTSAGEDGISYQPCTANCIGYAANVFATEPNGHIPEGFSFNNWFLLSNDSTLVHGKVVSNQPLLVNCLLAIPKIYGLGQFFSFNQTIDGVCNGAAVQRAPEALRFNINDTSVILAEGSIVLHTALGTNFSFVCSNSSDPHLATFATPLGATQVPYYCFLKVDTYNSTVYKFLAILPPTVREIVITKYGDFYVNGFGYLHLGLLDAVTINFTGHGTDDDVSGFWTIASTNFVDALIEVQGTAIQRILYCDDPVSQLKCSQVSFDLDDGFYPISSRNLLSHEQPISFVTLPSFNDHSFVNITVSASFGGHSGANLIASDTTINGFSSFCVETRQFTISLFYNVTNSYGYVSKSQDSNCPFTLQSVNDYLSFSKFCVSTSLLASACTIDLFGYPEFGSGVKFTSLYFQFTKGELITGTPKPLVGVTDVSFMTLDVCTKYTIYGFKGEGIITLTNSSFLAGIYYTSDSGQLLAFKNVTSGAVYSVTPCSFSEQAAYVDDDIVGVISSLSNSTFNSTRELPGFFYHSNDGSNCTEPVLVYSNIGVCKSGSIGYVLSKSGQVKIAPTVTGNISIPTNFSMSIRTEYLQLYNTPVSVDCATYVCNGNSRCKQLLTQYIAACKTIESALQLSARLESAEVNSMLTISEEALQLATISSFNGDGYNFTNVLGVSVRDPASGRVVQKRSFIEDLLFNKVVTNGLGTVDEDYKRCSNGRSVADLVCAQYYSGVMVLPGVVDAEKLHMYSASLIGGMVLGGFTAAAALPFSYAVQARLNYLALQTDVLQRNQQLLAESFNSAIGDITSAFESVKEAISQTSKGLNTVAHALTKVQEVVNSQGAALTQLTVQLQHNFQAISSSIDDIYSRLDILSADVQVDRLITGRLSALNAFVAQTLTKYTEVQASRKLAQQKVNECVKSQSQRYGFCGGDGEHIFSLVQAAPQGLLFLHTVLVPGDFVDVIAIAGLCVNDEIALTLREPGLVLFTHELQNHTATEYFVSSRRMFEPRKPTVSDFVQIESCVVTYVNLTRDQLPDVIPDYIDVNKTLYEILASLPNRTGPSLPLDVFNATYLNLTGEIADLEQRSESLRNTTEELQSLIYNINNTLVDLEWLNRVETYIKWPWWVWLIIFIVLIFVVSLLVFCCISTGCCGCCGCCGACFAGCCRGPRLQPYEAFEKVHVQ
B2: spike (S) protein: N1249Q (protein)
parent chain: B1 parent chain
B3: spike (S) protein: N726Q (protein)
parent chain: B1 parent chain
B4: spike (S) protein: N118Q (protein)
parent chain: B1 parent chain
B5: spike (S) protein: N216Q (protein)
parent chain: B1 parent chain
B6: spike (S) protein: N514Q (protein)
parent chain: B1 parent chain
B7: spike (S) protein: N556Q (protein)
parent chain: B1 parent chain
B8: spike (S) protein: N688Q (protein)
parent chain: B1 parent chain
B9: spike (S) protein: N743Q (protein)
parent chain: B1 parent chain
B10: spike (S) protein: N781Q (protein)
parent chain: B1 parent chain
B11: spike (S) protein: N1196Q (protein)
parent chain: B1 parent chain
B12: spike (S) protein: N62Q (protein)
parent chain: B1 parent chain
B13: spike (S) protein: N1261Q (protein)
parent chain: B1 parent chain
B14: spike (S) protein: N1278Q (protein)
parent chain: B1 parent chain
B15: spike (S) protein: N300Q (protein)
parent chain: B1 parent chain
B16: spike (S) protein: N324Q (protein)
parent chain: B1 parent chain
B17: spike (S) protein: N344Q (protein)
parent chain: B1 parent chain
B18: spike (S) protein: N351Q (protein)
parent chain: B1 parent chain
B19: spike (S) protein: N381Q (protein)
parent chain: B1 parent chain
B20: spike (S) protein: N873Q (protein)
parent chain: B1 parent chain
B21: spike (S) protein: N425Q (protein)
parent chain: B1 parent chain

Assay: H&E staining of intestine at 5 dpc
Conditions: glycan lost; control: rPEDV-WT

Protein	other: intestinal histopathology
B1	abolishes
B2	abolishes

Assay: viral titre in LLC-PK1 cells
Conditions: glycan lost; control: rPEDV-WT

Protein	other: viral replication
B3	decreases
B1	decreases
B2	decreases
B4	decreases
B5	decreases

Assay: RT-qPCR of rectal swabs
Conditions: glycan lost; control: rPEDV-WT

Protein	other: faecal viral shedding
B1	decreases
B2	decreases

Assay: anti-PEDV N immunofluorescence of intestine sections
Conditions: glycan lost; control: rPEDV-WT

Protein	other: intestinal viral antigen
B1	abolishes
B2	abolishes

Assay: oral challenge; fecal scores, gross necropsy
Conditions: glycan lost; control: rPEDV-WT

Protein	other: virulence in animals
B3	decreases
B1	decreases
B2	decreases
B4	decreases
B5	decreases

Assay: 4 °C binding, RT-qPCR of PEDV N
Conditions: glycan lost; control: rPEDV-WT

Protein	other: viral attachment
B1	no change
B2	no change
B4	decreases

Assay: 37 °C 30 min, citrate wash, RT-qPCR
Conditions: glycan lost; control: rPEDV-WT

Protein	other: viral internalization
B1	decreases
B4	decreases
B5	decreases

Assay: viral titre at 24 hpi, MOI 0.01
Conditions: glycan lost; control: rPEDV-WT

Protein	other: viral replication
B6	no change
B7	no change
B8	no change
B3	decreases
B9	no change
B10	no change
B11	no change
B1	decreases
B2	decreases
B12	no change
B13	no change
B14	no change
B4	decreases
B5	decreases
B15	no change
B16	no change
B17	no change
B18	no change
B19	no change

Assay: BAC transfection of Vero cells; CPE, western blot
Conditions: glycan lost; control: rPEDV-WT

Protein	other: virus rescue (viability), other: viruses recovered/attempts
B6	no change
B7	no change
B8	no change
B3	no change
B9	no change
B10	no change
B20	abolishes
B11	no change
B1	no change
B2	no change
B12	no change
B13	no change
B14	no change
B4	no change
B5	no change
B15	no change
B16	no change
B17	no change
B18	no change
B19	no change
B21	abolishes

Assay: plaque morphology assay, ImageJ
Conditions: glycan lost; control: rPEDV-WT

Protein	other: plaque size
B3	decreases
B1	decreases
B2	decreases
B4	decreases
B5	decreases

Assay: RT-qPCR of intestinal tissues at 5 dpc
Conditions: glycan lost; control: rPEDV-WT

Protein	other: intestinal viral load
B3	no change
B1	decreases
B2	decreases
B4	no change
B5	no change

Assay: CHX chase, anti-Flag western blot, 293T
Conditions: glycan lost; control: WT S protein

Protein	degradation_or_half_life
B3	no change
B1	no change
B2	no change
B4	no change
B5	no change
